Measurements from patent US20190085314A1 (SAINT LOUIS UNIVERSITY, published 2019).
Blank lines part the entries; values can stand above or below the molecule they belong to.

Key:
[1] = biological target: AtUBC8 (Arabidopsis thaliana ubiquitin conjugating enzyme E2 8), 6xHIS-tagged (Arabidopsis thaliana) (UniProt P35131); assay: Delta G calculated for residues 74-82 of AtMUB3 within the co-crystal structure; unit not given
[2] = biological target: AtUBC8 (Arabidopsis thaliana ubiquitin conjugating enzyme E2 8), 6xHIS-tagged (Arabidopsis thaliana) (UniProt P35131); assay: interface area calculated for residues 74-82 of AtMUB3 within the co-crystal structure
[3] = biological target: T1, biotinylated E2 (Ube2D3), from the E1/E2 Lite kit (LifeSensors) (UniProt P61077 1-147, limits assumed, biotinylated (site not stated); labelled with streptavidin-terbium in the assay); assay: HTRF-FRET E2 activation assay; initial velocity against HsMUB concentration, one-site binding fit; IC50 equal to Ki under limiting E2
T1 construct: Bought kit reagent; also called biotinylated Ube2D3
T1 sequence (P61077 whole entry): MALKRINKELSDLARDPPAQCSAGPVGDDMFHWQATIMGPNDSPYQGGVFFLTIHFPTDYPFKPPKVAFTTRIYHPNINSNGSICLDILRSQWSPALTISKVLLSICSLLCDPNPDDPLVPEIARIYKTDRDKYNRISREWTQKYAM

[4] = biological target: T2, AtUBC8 (Arabidopsis thaliana ubiquitin conjugating enzyme E2 8), 6xHIS-tagged (Arabidopsis thaliana, UniProt P35131 1-148); assay: Isothermal titration calorimetry (MicroCal iTC200), 110 uM AtMUB3 titrated into 8 uM AtUBC8, OneSites model; 25 mM HEPES pH 7.5, 200 mM NaCl, 1 mM TCEP
T2 construct: The crystal model holds residues 1-147/1-148; also called AtUBC08; not shown: 6xHIS tag
T2 sequence (P35131 whole entry, the tested form may be a part): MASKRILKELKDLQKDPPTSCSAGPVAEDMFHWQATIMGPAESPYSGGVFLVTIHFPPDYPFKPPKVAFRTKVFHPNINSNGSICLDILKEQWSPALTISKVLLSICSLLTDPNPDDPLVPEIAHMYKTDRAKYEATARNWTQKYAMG
Experimental: FIG. 13. […] Proteins were purified as described for crystallization and dialyzed extensively against a buffer containing 25 mM HEPES, pH 7.5, 200 mM NaCl, 1 mM TCEP. Data was processed with MicroCal Origin 7 software, and normalized against the dialysis buffer's heat of dilution.

Sequence of AtUBC8 (Arabidopsis thaliana ubiquitin conjugating enzyme E2 8), 6xHIS-tagged (Arabidopsis thaliana) (P35131 whole entry, the tested form may be a part): as above

Delta G [1]: -5
Surface area (Å^2) [2]: 288 Å^2
Molecule: AtMUB3 (74-82) (from UniProt Q9SW27 74-82)

Ki [3]: 220 nM
B1: HsMUB (Homo sapiens Membrane-anchored Ubiquitin-fold protein), C-terminal 6xHIS (other)
chain: MSSNVPADMINLRLILVSGKTKEFLFSPNDSASDIAKHVYDNWPMDWEEEQVSSPNILRLIYQGRFLHGNVTLGALKLPFGKTTVMHLVARETLPEPNSQGQRNREKTGESNCCVIL
notes: The coding region was cloned with the stop codon removed; also called Ubl3; human MUB; not shown: C-terminal 6xHIS tag from pET28b

Ka [4]: 3.53e+06 M⁻¹
Kd [4]: 283 nM
ΔH [4]: -8840 cal/mol
ΔS [4]: 0.331 cal/mol/deg
B2: AtMUB3 (Arabidopsis thaliana Membrane-anchored Ubiquitin-fold protein 3), 6xHIS-tagged (other, UniProt Q9SW27 1-118, looked up)
chain: MPEEESIDIKFRLYDGSDIGPFRYSAASTVDFLKQRVVSDWPKGKTVVPKGINEVKLISSGKILENNKTVGQCKTPFGDIAGGVIVMHVVVQPSLAKSKTEKKVDKAPKAVICTCTIL
notes: Expressed in E. coli, so not prenylated; An N-terminal 6xHIS AtMUB3 is also described; also called AtMUB3-His; not shown: C-terminal 6xHIS tag from pET28b
